The target of data set [1] is T1, SAMHD1 wt (human, UniProt Q9Y3Z3 1-626). The experiment in a line: competition.
Data set [2] has as its target T1, SAMHD1 wt. The experiment in a line: fluorescence anisotropy. In general terms: Fluorescence polarisation rises when a labelled molecule tumbles more slowly, as on binding a larger partner.
In the next data set the target is SAMHD1 ΔSAM (Δ112) (human, UniProt Q9Y3Z3 113-626, del1-112). Description: fluorescence anisotropy.
For a further data set, the target named is SAMHD1 T592E (human, UniProt Q9Y3Z3 1-626, T592E). Description: fluorescence anisotropy.
Another data set has as its target SAMHD1 R451E (human, UniProt Q9Y3Z3 1-626, R451E). Description: fluorescence anisotropy.
For the next data set, the target named is SAMHD1 Q548A (human, UniProt Q9Y3Z3 1-626, Q548A). Description: fluorescence anisotropy.
For data set [3], the target named is T1, SAMHD1 wt. Description: competition. This is another data set of the same source.
For data set [4], the target named is T1, SAMHD1 wt. Description: fluorescence anisotropy. This is another data set of the same source.

Like-named read-outs stand apart in the source and are kept apart here.

T1 sequence (Q9Y3Z3 whole entry): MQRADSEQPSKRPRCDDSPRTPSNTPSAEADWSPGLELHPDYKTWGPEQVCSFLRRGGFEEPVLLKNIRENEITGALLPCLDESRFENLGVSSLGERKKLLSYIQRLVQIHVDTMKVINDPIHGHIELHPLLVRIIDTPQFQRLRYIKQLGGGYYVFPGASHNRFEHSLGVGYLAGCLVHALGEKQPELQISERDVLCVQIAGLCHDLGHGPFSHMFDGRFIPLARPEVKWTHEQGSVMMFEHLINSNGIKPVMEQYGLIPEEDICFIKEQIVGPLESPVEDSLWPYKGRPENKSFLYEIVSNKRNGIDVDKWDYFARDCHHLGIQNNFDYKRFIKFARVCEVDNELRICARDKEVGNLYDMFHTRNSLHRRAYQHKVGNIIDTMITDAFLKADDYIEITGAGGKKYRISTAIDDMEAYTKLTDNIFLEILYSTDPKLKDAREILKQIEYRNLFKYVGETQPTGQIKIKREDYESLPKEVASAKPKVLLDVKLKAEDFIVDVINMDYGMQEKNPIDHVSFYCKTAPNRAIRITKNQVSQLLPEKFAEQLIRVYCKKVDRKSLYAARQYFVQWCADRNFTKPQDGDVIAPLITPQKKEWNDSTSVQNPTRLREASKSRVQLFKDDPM
SAMHD1 Q548A, sequence (Q9Y3Z3 whole entry Q548A): as the sequence (Q9Y3Z3 whole entry) above, with Q548A counted along it
SAMHD1 T592E, sequence (Q9Y3Z3 whole entry T592E): as the sequence (Q9Y3Z3 whole entry) above, with T592E counted along it
SAMHD1 ΔSAM (Δ112), sequence (Q9Y3Z3 113-626, stated change not applied): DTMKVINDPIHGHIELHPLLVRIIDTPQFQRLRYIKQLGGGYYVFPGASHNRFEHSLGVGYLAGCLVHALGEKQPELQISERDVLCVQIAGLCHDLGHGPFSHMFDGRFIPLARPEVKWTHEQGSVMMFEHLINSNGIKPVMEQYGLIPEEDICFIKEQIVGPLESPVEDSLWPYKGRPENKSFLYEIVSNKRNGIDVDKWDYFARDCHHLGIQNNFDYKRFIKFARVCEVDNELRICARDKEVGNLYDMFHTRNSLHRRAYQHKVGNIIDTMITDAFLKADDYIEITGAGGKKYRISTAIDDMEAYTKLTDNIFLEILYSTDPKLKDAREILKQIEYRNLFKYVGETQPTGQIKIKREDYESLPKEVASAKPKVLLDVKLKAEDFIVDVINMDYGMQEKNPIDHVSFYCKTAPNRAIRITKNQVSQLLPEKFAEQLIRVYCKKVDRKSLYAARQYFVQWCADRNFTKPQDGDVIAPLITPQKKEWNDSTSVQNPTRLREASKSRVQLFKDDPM
SAMHD1 R451E, sequence (Q9Y3Z3 whole entry R451E): as the sequence (Q9Y3Z3 whole entry) above, with R451E counted along it

B1: ssDNA90 (ssDNA)
DNA: TGGAGAATCCCGGTGCCGAGGCCGCTCAATTGGTCGTAGACAGCTCTAGCACCGCTTGAAGGAGATATACATACATTAATTGCGTTGCGC
B1: in the data set with SAMHD1 wt [1], the binding result is recorded as “binds”.

B2: RNA:DNA40 (DNA:RNA)
RNA: CACCAAUUCGUCUUAGGGUUAAUCUUGAAGCUAGAGUUAA
DNA: TTAACTCTAGCTTCAAGATTAACCCTAAGACGAATTGGTG
As for B2, the “apparent K (half saturation)” value with SAMHD1 wt [2] turned out to be 2000 ± 400 nM.

For CACCAAUUCGUCUUAGGGUUAAUCUUGAAGCUAGAGUUAA (ssRNA) [ssRNA40], the binding result with SAMHD1 ΔSAM (Δ112), with SAMHD1 T592E, in the data set with SAMHD1 R451E and in the data set with SAMHD1 Q548A was “binds” each time.

B3: ssRNA90 (ssRNA)
RNA: GGGGAAUUGUGAGCGGAUAACAAUUCCCCUCUAGAAAUAAUUUUGUUUAACUUUAAGAAGGAGAUAUACAUAUGCACCAUCAUCAUCAUC
In the case of B3, the binding result with SAMHD1 wt [3] was “binds”.

B4: ssDNA57 (ssDNA)
DNA: TGGAGAATCCCGGTGCCGAGGCCGCTCAATTGGTCGTAGACAGCTCTAGCACCGCTT
As to B4, the binding result with SAMHD1 T592E and with SAMHD1 Q548A was “binds” throughout. Moreover, the “apparent K (half saturation)” value with SAMHD1 wt [2] was found to be 450 ± 130 nM.

B5: dsDNA57 (dsDNA)
DNA 1: B4 DNA
DNA 2: AAGCGGTGCTAGAGCTGTCTACGACCAATTGAGCGGCCTCGGCACCGGGATTCTCCA
B5: the “apparent K (half saturation)” value in the data set with SAMHD1 wt [4] is 18 ± 2 µM.

The record behind these values is PMC4513882.
